Binding data for seven sequences are collected here from publication PMC11826091.

The subject of series [1] is T1, MtvA (Pseudomonas aeruginosa PAD8 (plasmid pPAD8)), ORF:f8ca6192.
T1 sequence: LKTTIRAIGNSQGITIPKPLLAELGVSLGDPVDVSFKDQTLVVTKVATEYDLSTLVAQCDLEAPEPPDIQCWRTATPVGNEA
In words: EMSA. The conditions noted are these: pH 8.0, 25 min at room temperature. (In general: A gel shift assay detects complexes by their altered migration in electrophoresis.)

Series [2] relates to MtvA;MtvT (Pseudomonas aeruginosa PAD8 (plasmid pPAD8);Pseudomonas aeruginosa PAD8 (plasmid pPAD8)), ORF:f8ca6192+ORF:03226125. In words: EMSA. The following applies: pH 8.0, 25 min at room temperature.

Consider “GTACGATCATCTTCACTTCCTCCAAATAGGAAGCTGAAGAATTTATGCAAATTTCATAATTTTATAACTAGCAAATGAGATAGATTTCGGTGAACCCGGACCCTTGCTAGGCTCGAAGAAACGTCCGAAAAGATCAGAGCA (double strand) [P-lasI]”, for which the binding entry in series [1] and in series [2] was “no binding” in each case.

Consider “GCCGTCTCCGCGCGGGAGGAAAAGGCCACAGCGATGTGGCTTTTTTCTTAAAAGAAAAGTCTCTCAGTGACAAAAGCGATGCATAGCCCGGTGCTAGCATGCGCTGAGCTTTAGGAGGCGCCCCC (double strand) [P-exsC]”, for which the binding result in series [1] and in series [2] was “no binding” in each case.

Regarding “GCTGGGAAGGCTCGCGATGATGAGGGGACTGGCCACTGTAGCGGGCCCGGCGCAGATCATCTTGACGCACGGCAAGCTCCCGGCGGCTGGGTGTTGCCGTCGGTCCGGCGAGCGGAACTATTACAGCGTGTAAGCCAAGGCTTACAAACGGCGGTGGTTTTGGCTGCTTTCTCCCCCTCGCAGAGATGCGTAATCTTCAAACCGTCAGGACATTGCGCAGG (double strand) [P-rsmY]”, the binding entry in series [1] and in series [2] was “binds” each time.

With “CGGAAAACCTTAGACCCACTGAAGACCCGGCGTTCGCCGGGTTTTTTGTGTCTGCTCTTGTAAGCATTAACTTACACGGCGTGTGAGCCTAAGTAGATAAATGCCCGGGAGGTTTGCCAAAAACGCTCGGTGAATTTAAGTAACTTATTGAAATTAAAGGAATATATTTTTCTAAAATGGCTGCCGAAGAAGCTTCGCTGGGTTTTCTGGCAGGTTGCGGGAGCACTGGGAATCGCTAATATCACTCCTG (double strand) [P-rsmZ]”, the binding result in series [1] and in series [2] was “binds” in each case.

“TATGGATCCCGTATCTGCTCGGTTGGTTGATGGACAAAGCGCTTATCAAAAGGAAAACAACGCTTTGGCGCACGACTATACAGCAACGAAAGTCGAACGATAAGGCAATGATAGTCAGAAGTGACCCACCACTCAACACCAACCCACGCCCATATAGGTCTACGGTGACCTAAAACCTCGCTCGCCCTCCAAATAGGTCACCTGTGACCCTCGAGTAA (double strand) [P-dotD]”: the binding entry in series [1] and in series [2] was “binds” in each case.

Regarding “TTACTCGAGTGATGGCGATCGCCGCCGACGATGCTTCGTTTGATCACAGCTGCGTGGTCAACTTCAAATCGGCCGCCTGAGGGCGGCCCTACCCATAGATCCTGATTCCTCAACAAGAAAAAGCGACGTGTCCATTCGTTGACACTAAAGGTATTTTTGCGTATTTTTCGACATTATCATCTAATGAAAGTCGTTGGGGTTTGTTCGGTGGATCCATA (double strand) [P-icmL]”, the binding result in series [1] and in series [2] was “binds” throughout.

On to “TTACTCGAGAAGTTTGGAATAACCAGAGATATGCTCGTCAACAACGAATGTTTGAACATATTTATCGGAACTTATTACATTCAGCGTAGCGTGCTGGGGAGTGATGATTTTTGGAAGGGCGTTGGTAATTACCACTCTCGCACGCCCGACAAAAACTACCGGTACAAACATCGTGTGTGGAACAGTCTCAAAGAAGTCCGGGGGCAGCAGGATCCATA (double strand) [P-icmP]”, for which the binding entry in series [1] and in series [2] was “binds” each time.
